The values that follow come from article PMC7755605, “The Interaction of TRAF6 With Neuroplastin Promotes Spinogenesis During Early Neuronal Development” (Frontiers in Cell and Developmental Biology, 2020).

As a reminder, the Kd is the concentration at which binding is half-saturated. A lower Kd goes with a tighter complex. As a reminder, the stoichiometry N is the number of molecules, sites or subunits per partner or assembly.

This assay deals with T1, N-terminally GST-tagged TRAF6 (mouse, UniProt P70196 1-530).
T1 construct: TNF receptor-associated factor 6 (TRAF6), mouse; amplified by PCR with primers from the start codon to the stop codon; 530 residues by the printed limits of the cc-c construct; also called GST-TRAF6; purified recombinant TRAF6; source: E. coli BL21 (DE3), purified (GST bulk kit); not shown: GST, N-terminal, kept
T1 sequence (looked up): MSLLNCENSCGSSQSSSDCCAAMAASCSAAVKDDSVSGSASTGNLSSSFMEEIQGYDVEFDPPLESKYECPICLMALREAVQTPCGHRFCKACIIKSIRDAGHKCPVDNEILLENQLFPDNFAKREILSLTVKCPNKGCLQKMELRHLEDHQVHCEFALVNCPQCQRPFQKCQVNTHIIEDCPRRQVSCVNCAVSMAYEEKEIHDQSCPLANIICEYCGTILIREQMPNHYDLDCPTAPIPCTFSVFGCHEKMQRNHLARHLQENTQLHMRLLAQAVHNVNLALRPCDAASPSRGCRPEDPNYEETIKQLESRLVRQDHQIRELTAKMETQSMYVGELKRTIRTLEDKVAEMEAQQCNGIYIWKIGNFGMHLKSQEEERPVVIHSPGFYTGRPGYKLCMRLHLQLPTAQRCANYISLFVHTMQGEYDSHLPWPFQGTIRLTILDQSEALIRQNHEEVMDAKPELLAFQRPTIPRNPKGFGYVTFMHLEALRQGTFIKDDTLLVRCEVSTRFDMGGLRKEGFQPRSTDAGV
Put plainly: SPR; BIACORE X100, single cycle kinetics; GST-TRAF6 amine-coupled on a CM5 chip, GST-coated sensor as reference; neuroplastin peptide injected at 2.5, 5, 100, 200 and 400 uM; HBS-P buffer. Particulars: both partners purified. For orientation: Surface plasmon resonance follows binding to a sensor surface in real time, without labels.

B1: neuroplastin intracellular peptide containing the TRAF6 binding motif (peptide)
chain: EKRKRPDEVPDAGPMKTNSTNNHKDKNLRQRNTN
modifications: Peptide limits are not printed (possibly in the figure or supplement). The whole cytoplasmic tail is taken by convention from the UniProt topology; it should contain the printed motif RKRPDEVPD. …
Take B1: binding was characterised by a dissociation constant (Kd) of 88 µM and the “stoichiometry N” value amounted to 1.
